# From paper PMC7318843 (Neuron, 2020)
# Target: biotin-labeled Aβ40 (UniProt P05067 672-711, biotin (position not given))
# Test: pull-down
binder,measurement,value
"MDK protein (Midkine), human recombinant (natural protein, UniProt P21741 21-143, looked up) VAKKKDKVKKGGPGSECAEWAWGPCTPSSKDCGVGFREGTCGAQTQRIRCRVPCNWKKEFGADCKYKFENWGACDGGTGTKVRQGTLKKARYNAQCQETIRVTKPCTPKTKAKAKAKKGKGKD",binding result,binds
